Reference: US20220259318A1 (Hoffmann-La Roche, published 2022)
“And” between values parts separate entries of the source, which are not always exact repeats. Identical values can stand only once. Like-named read-outs stand apart in the source and are kept apart here.

B1: 5F11(VH1c + VL1b)-C122-TCB (P1AE6624) (bispecific antibody, human IgG1, kappa, L234A L235A)
light 1: DIVMTQSPLSLPVTPGEPASISCRSSKSLLHSNGITYVYWYLQKPGKSPQVLIYRMSNLASGVPDRFSGSGSGTDFTLKISRVEAEDVGVYHCGQLLENPYTFGQGTKLEIKRTVAAPSVFIFPPSDRKLKSGTASVVCLLNNFYPREAKVQWKVDNALQSGNSQESVTEQDSKDSTYSLSSTLTLSKADYEKHKVYACEVTHQGLSSPVTKSFNRGEC
light 2: EVQLLESGGGLVQPGGSLRLSCAASGFQFSSYAMNWVRQAPGKGLEWVSRIRSKYNNYATYYADSVKGRFTISRDDSKNTLYLQMNSLRAEDTAVYYCVRHTTFPSSYVSYYGYWGQGTLVTVSSASVAAPSVFIFPPSDEQLKSGTASVVCLLNNFYPREAKVQWKVDNALQSGNSQESVTEQDSKDSTYSLSSTLTLSKADYEKHKVYACEVTHQGLSSPVTKSFNRGEC
heavy 1: QVQLVESGGGVVQPGRSLRLSCAASGFSFSNYGMAWVRQAPGKGLEWVASISTGGGNTYYADSVKGRFTISRDNSKNTLYLQMNSLRAEDTAVYYCTRHDRGGLYWGQGTMVTVSSASTKGPSVFPLAPSSKSTSGGTAALGCLVEDYFPEPVTVSWNSGALTSGVHTFPAVLQSSGLYSLSSVVTVPSSSLGTQTYICNVNHKPSNTKVDEKVEPKSCDKTHTCPPCPAPEAAGGPSVFLFPPKPKDTLMISRTPEVTCVVVDVSHEDPEVKFNWYVDGVEVHNAKTKPREEQYNSTYRVVSVLTVLHQDWLNGKEYKCKVSNKALGAPIEKTISKAKGQPREPQVCTLPPSRDELTKNQVSLSCAVKGFYPSDIAVEWESNGQPENNYKTTPPVLDSDGSFFLVSKLTVDKSRWQQGNVFSCSVMHEALHNHYTQKSLSLSPGK
heavy 2: not shown
notes: 2+1 TCB: LC1 (anti-GPRC5D), LC2 (anti-CD3 crossed), HC1 Fc hole, HC2 Fc knob
B2: 5E11-IgG (antibody, V domains shown)
VH: ELQLEQSGGGLVQPGGSLTLSCAASGFTFSKYAMAWVRQAPTKGLEWVASISTGGVNTYYRDSVKARFTISRDNAKNTQYLQMDSLRSEDTATYYCATHTGDYFDYWGQGVMVTVSS
VL: DIVLTQSPALAVSPGQRATISCRASQSVSISGINLMNWYQQKPGQQPKLLIYHASILASGIPTRFSGSGSGTDFTLTIDPVQADDIATYYCQQTRESPLTFGSGTNLEIK
notes: Rat-derived variable domains, tested as IgG; also called P1AE5706 (parental); 5E11 parental
B3: 10B10 IgG (antibody, V domains shown)
VH: EVQLVESGGGLVQPGRSMKLSCAASGFTFTNFYMAWVRQAPTKALEWVASINTGGGYTYYRDSVKGRFTVSRDNTRSTLYLQMDSLRSEETATYYCARHLTYYGRYYYFDYWGQGVMVTVSS
VL: DIQLTQSPHSLSASLGETVSIECLASEGISNYLAWFHQKPGKSPQLLIYYASSLQDGVPSRFSGSGSGTQYSLKISNMQPEDEGVYYCQQGYKYPLTFGSGTKLEIK
B4: 5F11-IgG (antibody, V domains shown)
VH: EVQLVESGGGLVQPGRSLKLSCAASGFSFSNYGMAWVRQAATKGLEWVASISTGGGNTYYRDSVKGRFIVSRDNAKNTQYLQMDSLRSEDTATYYCTRHDRGGLYWGQGVMVTVSS
VL: DIVMTQAPLSVSVTPGESASISCRSSKSLLHSNGITYVYWYFQKPGKSPQVLIYRMSNLASGVPDRFSGSGSETDFTLKISRVEAEDVGIYHCGQLLENPYTFGAGTELELK
notes: Rat-derived variable domains, tested as IgG; also called P1AE5733 (parental); 5F11_parental
B5: 07A04 IgG (antibody, V domains shown)
VH: QVTLKESGPGILQPSHTLSLTCSFSGFSLSTYGMGVNWIRQPSGKGLEWLASIWWNGNTYNNPSLKSRLTVSKDTSNNQAFLKVTSVDTADTATYYCVHTRGIIRGRGLFFDYWGQGVMVTVSS
VL: DVQMTQSPYNLAASPGESVSINCKASKSISKYLAWYQQKPGKANKLLIYDGSTLQSGIPSRFSGSGSGTDFTLTIRSLEPEDFGLYYCQQHNEYPLTFGSGTKLEIKR
notes: the format as tested is not certain

Experiments:
[1] = biological target: T1, human GPRC5D (human, UniProt Q9NZD1 1-345); assay: cell-based or functional assay
T1 sequence (Q9NZD1 whole entry): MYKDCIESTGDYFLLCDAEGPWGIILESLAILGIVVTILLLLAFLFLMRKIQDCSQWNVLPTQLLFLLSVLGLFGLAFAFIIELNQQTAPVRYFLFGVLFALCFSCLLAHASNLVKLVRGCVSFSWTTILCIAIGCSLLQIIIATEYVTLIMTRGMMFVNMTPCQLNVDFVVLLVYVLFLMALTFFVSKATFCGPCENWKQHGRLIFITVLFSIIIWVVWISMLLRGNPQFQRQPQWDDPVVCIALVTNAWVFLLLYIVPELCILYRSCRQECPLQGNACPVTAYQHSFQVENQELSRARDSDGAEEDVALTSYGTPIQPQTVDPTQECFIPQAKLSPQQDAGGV

[2] = biological target: T1, human GPRC5D; assay: flow cytometry on NCI-H929 cells; paragraph 550 says these values were falsely calculated by a factor of 10 (too low)
Description: To measure the binding to GPRC5D, we performed a flow cytometry-based binding assay on reported multiple myeloma cell lines (Lombardi et al., Molecular characterization of human multiple myeloma cell lines by integrative genomics: insights into the biology of the disease; Genes Chromosomes Cancer. 2007 March; 46(3):226-38). The cell line NCI-H929 (ATCC® CRL-9068) was cultured in RPMI 1640 with Glutamax medium (Gibco) supplemented with 10% FBS, 1× Penicillin/Streptomycin (Gibco), 1× Sodium Pyruvate (Gibco) and 50 μM beta-Mercaptoethanol (Gibco). Jurkat-NFAT reporter cells (a CD3-expressing human acute lymphatic leukemia reporter cell line with a NFAT promoter, GloResponse Jurkat NFAT-RE-luc2P, Promega #CS176501) were cultured in RPMI 1640, containing 2 g/l Glucose, 2 g/l NaHCO₃, 10% FCS, 25 mM HEPES, 2 mM L-Glutamine, 1×NEAA, 1× Sodium-pyruvate and 200 μg/ml Hygromycin B.
Flow cytometry acquisition was performed on a custom-designed BD Biosciences Fortessa and analyzed using BD Diva. EC50 values were calculated, using GraphPad Prism software.

[3] = biological target: T1, human GPRC5D; assay: cell-based or functional assay; remark: listed apart in the source
[4] = biological target: T1, human GPRC5D; assay: cell ELISA, CHO hu GPRC5D (EC/IC50 rel)
In short: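 Stably transfected CHO cells seeded overnight, then incubated 2 h at 4° C with antibody IgGs in 15-point 1:3 dilutions from 30 μg/ml. Cells fixed with 0.05% glutaraldehyde; binding detected with HRP anti-human Ig and TMB, absorbance at 370/492 nm.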

[5] = biological target: T1, human GPRC5D; assay: cell-based or functional assay; remark: listed apart in the source
[6] = biological target: T1, human GPRC5D; assay: cell-based or functional assay; remark: listed apart in the source
[7] = biological target: T1, human GPRC5D; assay: cell ELISA, CHO cells stably expressing human GPRC5D
Description: (§1) Stable transfected CHO clones expressing either human GPRCSD or cynomolgus GPRCSD or murine GPRCSD or human GPRCSA were used to analyze the binding of potential lead candidate antibodies as IgGs. In detail, 10⁴ cells (viability≥98%) were seeded into 384 well-microtiter plates (BD Poly D-Lysin, #356662, volume: 25 μl/well) using fresh culture medium. After overnight incubation at 37° C., 25 μl/well dilutions of antibodies were added (15×1:3 dilutions in 1×PBS, assay conc. starts at 30 μg/ml) to the cells for 2 hours at 4° C. After one washing step using 90 μl/well PBST (10×PBS, Roche, #11666789001+0.1% Tween 20), cells were subsequently fixed by the addition of 50 μl/well 0.05% glutaraldehyde (Sigma Cat. No: G5882 in 1×PBS) for 10 min at room temperature (RT). After three additional washing steps using 90 μl/well PBST, secondary antibodies were added for detection: for human antibodies goat anti-human Ig a chain antibody HRP conjugate (Millipore #AP502P) diluted 1:2000 in blocking buffer (1×PBS (Roche #11666789001)+2% BSA (Bovine Serum Albumin Fraction V, fatty acid free, Roche, #10735086001)+0.05% Tween 20) was used (25 μl/well). […] After incubation for 1 h at RT and three additional washing steps using 90 μl/well PBST, 25 μl/well TMB substrate was added (Roche order no. 11835033001) for 10 min and color development to final ODs was determined by measurement at 370 nm/492 nm.

[8] = biological target: T2, human GPRC5A (human, UniProt Q8NFJ5 1-357); assay: cell ELISA on stably transfected CHO cells
T2 construct: whole, on cells; also called hu GPCR5A; GPRCSA
T2 sequence (Q8NFJ5 whole entry): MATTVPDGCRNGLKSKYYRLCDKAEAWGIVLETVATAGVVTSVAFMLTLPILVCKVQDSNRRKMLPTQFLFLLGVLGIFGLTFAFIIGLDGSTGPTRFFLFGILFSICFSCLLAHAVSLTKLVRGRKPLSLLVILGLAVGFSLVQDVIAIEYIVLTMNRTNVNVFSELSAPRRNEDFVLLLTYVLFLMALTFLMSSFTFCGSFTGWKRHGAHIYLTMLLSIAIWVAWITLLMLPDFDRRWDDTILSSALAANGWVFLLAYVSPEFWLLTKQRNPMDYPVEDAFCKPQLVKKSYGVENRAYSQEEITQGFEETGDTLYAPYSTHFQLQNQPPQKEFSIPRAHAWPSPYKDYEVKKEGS
Description: as §1
(§2) Cynomolgus crossreactivity was also detected for all other antibodies but at lower levels compared to 10B10 and 07A04 (FIG. 9). No significant binding to CHO cells expressing murine GPRC5D and no binding to CHO cells expressing the human version of GPRC5A was detected (FIG. 9).

[9] = biological target: T3, cynomolgus GPRC5D (cynomolgus); assay: cell ELISA, CHO cells stably expressing cynomolgus GPRC5D
T3 construct: whole, on cells; also called cyno GPRC5D; CHO cy GPCR5D
Description: as §1

[10] = biological target: T4, murine GPRC5D (murine, UniProt Q9JIL6 1-344); assay: cell ELISA on stably transfected CHO cells
T4 construct: whole, on cells
T4 sequence (looked up): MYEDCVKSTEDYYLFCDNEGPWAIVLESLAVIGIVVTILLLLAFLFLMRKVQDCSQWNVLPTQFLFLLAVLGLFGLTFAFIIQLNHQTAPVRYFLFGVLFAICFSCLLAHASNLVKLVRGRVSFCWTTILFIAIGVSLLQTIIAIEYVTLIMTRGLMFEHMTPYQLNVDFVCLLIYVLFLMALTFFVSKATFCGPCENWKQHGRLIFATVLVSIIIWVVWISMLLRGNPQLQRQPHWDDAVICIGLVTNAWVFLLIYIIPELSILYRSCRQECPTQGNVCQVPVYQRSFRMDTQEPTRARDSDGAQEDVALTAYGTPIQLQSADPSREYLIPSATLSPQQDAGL
Description: as §1, §2

[11] = biological target: T1, human GPRC5D; assay: cell-based or functional assay; remark: listed apart in the source

Binder	EC50 (pM), activation of autologous T-cells (CD69 on CD8 T cells) with a primary MM sample [1] [pM]	EC50 [2] [pM]	AUC, activation of Jurkat-NFAT reporter cells in presence of RPMI-8226 cells [3]	EC50 (pM), activation of Jurkat-NFAT reporter cells in presence of RPMI-8226 cells [3] [pM]	EC50 [4]	EC50 values of CAR-J activation [5] [ng/mL]	CAR-J2 EC50 [ng/mL] (PGLALA-CAR-J activation, L363 target cells) [6]	EC50 [7]	binding result [8]	EC50 [9]	binding result [10]	CAR-J2 EC50 [ng/mL] (PGLALA-CAR-J activation, L363 target cells) [11]
B1	1.06	100	881000	4.5								
B2					0.0104 µg/mL and 0.07 nM	3.9	3.9	0.0296 µg/mL and 0.198 nM	no binding (tested: assay conc. starts at 30 µg/ml)			
B3								0.0163 µg/mL and 0.109 nM	no binding (tested: assay conc. starts at 30 µg/ml)	0.012 µg/mL and 0.08 nM	no binding (tested: assay conc. starts at 30 µg/ml)	
B4					0.0058 µg/mL and 0.04 nM	2.65		0.0217 µg/mL and 0.144 nM	no binding (tested: assay conc. starts at 30 µg/ml)			2.65
B5								0.0243 µg/mL and 0.162 nM	no binding (tested: assay conc. starts at 30 µg/ml)	0.115 µg/mL and 0.764 nM	no binding (tested: assay conc. starts at 30 µg/ml)	
